Laboratory results published in patent publication US20230183352A1 (published 2023).
Substitutions are numbered along the chain they refer to. Where two headings read alike, the source gives them in different places.

B1: QP14501448 (antibody, V domains shown)
VH: EVQLVESGGGLVQPGGSLRLSCAASGFTFSSFGMHWVRQAPGKGLEWVAYISSGSNSIYYVDTVKGRFTISRDNAKNSLYLQMNSLRDEDTAVYYCARNAYYGNSFDYWGQGTLVTVSS
VL: DIVMTQSPDSLAVSLGERATISCKSSQSLLNSGNQKNYLTWYQQKPGQPPKLLIYWASTRESGVPDRFTGSGSGTVFTLTISSLQAEDVAVYFCQNNYYYPLTFGGGTKVEIKR
B2: QP14501446 (antibody, V domains shown)
VH: B1 VH
VL: B1 VL with S22N, T69S, V76D, F93Y
B3: QP14581454 (antibody, V domains shown)
VH: QVQLVQSGAEVKKPGASVKVSCKASGYTFTNYFVHWVKQAPGQGLEWIGYINPYNDDTKYNEKFKGKATLTRDTSTSTVYMELSSLRSEDTAVYYCLSLRFFAYWGQGTLVTVSS
VL: B1 VL with P49A, T69S, V76D, L84V, N97D, Y99S
B4: QP14581453 (antibody, V domains shown)
VH: B3 VH
VL: B1 VL with P49A, T69S, V76D, F93Y, N97D, Y99S
B5: QP14561454 (antibody, V domains shown)
VH: B3 VH with K38R, I48M, K67R, A68V, L70M
VL: B1 VL with P49A, T69S, V76D, L84V, N97D, Y99S
B6: QP14491448 (antibody, V domains shown)
VH: B1 VH with A49S
VL: B1 VL
B7: QP201202 (antibody, V domains shown)
VH: EVQLQQSGPELVKPGASVKMSCKASGYTFTNYFVHWVKQKPGQGLEWIGYINPYNDDTKYNEKFKGKATLTSDKSSSTAYMDLSSLTSEDSAVYYCLSLRFFAYWGQGTLVTVSA
VL: DIVMTQSPSSLTVTAGEKVTMSCKSSQSLLNSGNQKNYLTWYQQKPGQAPKLLIYWASTRESGVPDRFIGSGSGTDFTLTISHVQAEDLAVYFCQNDYSYPLTFGAGTNLELK
B8: QP199200 (antibody, V domains shown)
VH: DVQLVESGGGLVQPGGSRKLSCAASGFTFSSFGMHWVRQAPEKGLEWVAYISSGSNSIYYVDTVKGRFTISRDNPKNTLFLQMTSLKSEDTAMYYCARNAYYGNSFDYWGQGTTLTVSS
VL: B7 VL with A49P, I69T, D76V, H83S, D97N, S99Y, N109K
B9: QP14431442 (antibody, V domains shown)
VH: QVQLVQSGAEVKKPGASVKVSCKASGYAFSSYWMNWVRQAPGQGLEWMGQIYPGNGDTTYNGKFKGRVTMTRDTSTSTVYMELSSLRSEDTAVYYCARFVKGNAMDYWGQGTLVTVSS
VL: DIVMTQSPDSLAVSLGERATISCKSSQSLLNSGNQKNYLTWYQQKPGQPPKMLIYWASTRESGVPDRFSGSGSGIDFTLTISSVQAEDVAVYYCQNAYSYPFTFGQGTKLEIK
B10: QP14441440 (antibody, V domains shown)
VH: B9 VH with M48I, R72A, T74K
VL: B9 VL with M52L, I75T, V84L
B11: QP14441439 (antibody, V domains shown)
VH: B9 VH with M48I, R72A, T74K
VL: B9 VL with S22N, M52L, I75T, V84L
B12: QP14501447 (antibody, V domains shown)
VH: B1 VH
VL: B9 VL with M52L, I75T, V84L, Y93F, A97N, S99Y, F102L, Q106G, L110V
B13: QP14571453 (antibody, V domains shown)
VH: B3 VH with K38R, K67R, A68V
VL: B9 VL with P49A, M52L, I75T, V84L, A97D, F102L, Q106G, L110V
B14: QP14561453 (antibody, V domains shown)
VH: B3 VH with K38R, I48M, K67R, A68V, L70M
VL: B9 VL with P49A, M52L, I75T, V84L, A97D, F102L, Q106G, L110V
B15: QP14451441 (antibody, V domains shown)
VH: B9 VH with M48I, R72A, T74K, Y95F
VL: B9 VL with M52L
B16: QP14571454 (antibody, V domains shown)
VH: B3 VH with K38R, K67R, A68V
VL: B9 VL with P49A, M52L, I75T, Y93F, A97D, F102L, Q106G, L110V
B17: QP14651462 (antibody, V domains shown)
VH: EVQLVQSGAEVKKPGASVKVSCKASGYTFTSYIMHWVRQAPGQGLEWIGYINPYNDGTKYNEKFKGRVTLTSDKSTSTVYMELSSLRSEDTAVYYCARLGFTTRNAMDYWGQGTLVTVSS
VL: B9 VL with S22N, T40A, M52L, W56G, S69T, I75T, A97D, Y98H
B18: QP14561452 (antibody, V domains shown)
VH: B3 VH with K38R, I48M, K67R, A68V, L70M
VL: B9 VL with S22N, M52L, I75T, V84L, A97D, F102L, Q106G, L110V
B19: QP14561455 (antibody, V domains shown)
VH: B3 VH with K38R, I48M, K67R, A68V, L70M
VL: B9 VL with P49A, M52L, S69I, I75T, Y93F, A97D, F102L, Q106G, L110V
B20: QP14571452 (antibody, V domains shown)
VH: B3 VH with K38R, K67R, A68V
VL: B9 VL with S22N, M52L, I75T, V84L, A97D, F102L, Q106G, L110V
B21: QP14491446 (antibody, V domains shown)
VH: B1 VH with A49S
VL: B9 VL with S22N, M52L, I75T, V84L, A97N, S99Y, F102L, Q106G, L110V
B22: QP14511446 (antibody, V domains shown)
VH: B1 VH with D88S
VL: B9 VL with S22N, M52L, I75T, V84L, A97N, S99Y, F102L, Q106G, L110V
B23: QP14571455 (antibody, V domains shown)
VH: B3 VH with K38R, K67R, A68V
VL: B9 VL with P49A, M52L, S69I, I75T, Y93F, A97D, F102L, Q106G, L110V
B24: QP14651461 (antibody, V domains shown)
VH: B17 VH
VL: B9 VL with S22N, T40A, M52L, W56G, S69T, I75T, V84L, A97D, Y98H
B25: QP14431441 (antibody, V domains shown)
VH: B9 VH
VL: B9 VL with M52L
B26: QP14661460 (antibody, V domains shown)
VH: B17 VH with R38K, R67K, V68A, Y95C
VL: B9 VL with S22N, T40A, M52L, W56G, I75T, V84L, A97D, Y98H
B27: QP14581452 (antibody, V domains shown)
VH: B3 VH
VL: B9 VL with S22N, M52L, I75T, V84L, A97D, F102L, Q106G, L110V
B28: QP14441442 (antibody, V domains shown)
VH: B9 VH with M48I, R72A, T74K
VL: B9 VL

Experiments:
[1] = molecular target: T1, Claudin 18.2 (CLDN18.2), expressed on CHOS-CLDN 18.2 / HEK293-CLDN 18.2 / HCC827-CLDN 18.2 cells (human, UniProt P56856 1-261); assay: cell ELISA
[2] = molecular target: T1, Claudin 18.2 (CLDN18.2), expressed on …; assay: cell ELISA; remark: listed apart in the source

Binder | EC50 [1] | EC50 [2]
B1 | 0.115 µg/mL | –
B2 | 0.109 µg/mL | –
B3 | – | 0.21 µg/mL
B4 | – | 0.187 µg/mL
B5 | – | 0.213 µg/mL
B6 | 0.12 µg/mL | –
B7 | – | 0.944 µg/mL
B8 | 0.243 µg/mL | –
B9 | – | 0.132 µg/mL
B10 | – | 0.086 µg/mL
B11 | – | 0.109 µg/mL
B12 | 0.0926 µg/mL | –
B13 | – | 0.796 µg/mL
B14 | – | 0.357 µg/mL
B15 | – | 0.134 µg/mL
B16 | – | 0.357 µg/mL
B17 | 0.119 µg/mL | –
B18 | – | 0.389 µg/mL
B19 | – | 0.246 µg/mL
B20 | – | 0.242 µg/mL
B21 | 0.158 µg/mL | –
B22 | 0.133 µg/mL | –
B23 | – | 0.265 µg/mL
B24 | 0.301 µg/mL | –
B25 | – | 0.159 µg/mL
B26 | 0.105 µg/mL | –
B27 | – | 0.279 µg/mL
B28 | – | 0.243 µg/mL
